# From patent US20260242478A1 (published 2026)
# Where no end group is shown, it is not given here.
# B1: Phage-4003 (peptide)
# peptide: DIEVCRPHWMCEGF
# B2: Peptide-198 (peptide)
# peptide: LTRCVPDWMCYRAV
# modifications: cysteine pairing not given here; also: biotinylated (site not given here)
# notes: PSMA peptide mask (P2)
# B3: Phage-3999 (peptide)
# peptide: VQRVCVPTWMCDVF
# B4: Peptide-204 (peptide)
# peptide: QCTWNEKTWWMECE
# modifications: cysteine pairing not given here; also: biotinylated (site not given here)
# notes: PSMA peptide mask (P2)
# B5: Peptide-195 (peptide)
# peptide: QLPCHYWGEWCPQA
# modifications: cysteine pairing not given here; also: biotinylated (site not given here)
# notes: PSMA peptide mask (P2)
# B6: Peptide-205 (peptide)
# peptide: MCQWDKINYWMDCD
# modifications: cysteine pairing not given here; also: biotinylated (site not given here)
# notes: PSMA peptide mask (P2)
# B7: Peptide-203 (peptide)
# peptide: QCVWDNFNYWMDCD
# modifications: cysteine pairing not given here; also: biotinylated (site not given here)
# notes: PSMA peptide mask (P2)
# B8: Phage-3739 (peptide)
# peptide: VNRMCVPVWMCQGF
# notes: also called Peptide-180 library clone
# B9: Phage-4002 (peptide)
# peptide: MTNMCRPSWMCAVF
# B10: Phage-3742 (peptide)
# peptide: YSISCVPQWMCEGF
# notes: as for B8
# B11: Phage-3998 (peptide)
# peptide: QMITCQPKWMCEGF
# B12: Peptide-202 (peptide)
# peptide: MCQWDELNYWMDCD
# modifications: cysteine pairing not given here; also: biotinylated (site not given here)
# notes: PSMA peptide mask (P2)
# B13: Phage-3741 (peptide)
# peptide: WTPLCKPLWMCQGL
# notes: as for B8
# B14: Peptide-206 (peptide)
# peptide: QCVWDLTNYWMNCD
# modifications: cysteine pairing not given here; also: biotinylated (site not given here)
# notes: PSMA peptide mask (P2)
# B15: Phage-4000 (peptide)
# peptide: QEMTCVPRWMCSGF
# B16: Peptide-209 (peptide)
# peptide: QCVWDRGTWWMACD
# modifications: cysteine pairing not given here; also: biotinylated, site not given here
# notes: PSMA peptide mask (P2)
# B17: Phage-3995 (peptide)
# peptide: MDVWCVPTWMCQHL
# B18: Phage-4008 (peptide)
# peptide: IMQRCEPLWMCSGL
# B19: Phage-3743 (peptide)
# peptide: VQPWCVPSWMCERF
# notes: as for B8
# B20: Peptide-194 (peptide)
# peptide: SKLLCVPPWMCYHV
# modifications: cysteine pairing not given here; also: biotinylated (site not given here)
# notes: PSMA peptide mask (P2)
# B21: Phage-3996 (peptide)
# peptide: GTQACVPLWMCEGI
# B22: Phage-4004 (peptide)
# peptide: EVKKCVPAWMCESQ
# B23: Phage-4007 (peptide)
# peptide: PTSFCRPPWMCEGL
# B24: Phage-3740 (peptide)
# peptide: LLLRCEPTWMCTGF
# notes: as for B8
# B25: Phage-4005 (peptide)
# peptide: LTSWCVPQWMCDGL
# B26: Phage-4009 (peptide)
# peptide: GPKLCLPMWMCQGF
# B27: Peptide-212 (peptide)
# peptide: HCKFHDYHSWYVCY
# modifications: cysteine pairing not given here; also: biotinylated, site not given here
# notes: PSMA peptide mask (P2)
# B28: Peptide-200 (peptide)
# peptide: ILPCHWYTSDCPQH
# modifications: cysteine pairing not given here; also: biotinylated (site not given here)
# notes: PSMA peptide mask (P2)
# B29: Peptide-207 (peptide)
# peptide: DCHWNKATWWMDCE
# modifications: cysteine pairing not given here; also: biotinylated, site not given here
# notes: PSMA peptide mask (P2)
# B30: Phage-4006 (peptide)
# peptide: HVTMCSPNWMCWGL
# B31: Phage-4001 (peptide)
# peptide: DGLICQPSWMCTGL
# B32: Phage-3997 (peptide)
# peptide: VQPWCVPAWMCDGL
# How the values were obtained:
# 006 PSMA Fab [1] = target: T1, 006 PSMA Fab; experiment: clonal phage ELISA; biotinylated PSMA Fab on neutravidin plate, bound phage detected with anti-M13-HRP
# T1 construct: also called Anti-PSMA Fab
# Description: (§1) Clonal phage were harvested as crude supernatants and screened via standard ELISAs. […] Prior to the addition of clonal phage. wells were incubated with blocking buffer and PSMA antigen or blocking buffer alone. Without washing or aspirating, clonal phage supernatants were then added to the wells and incubated for a short time. Wells were then washed followed by detection of bound phage using a horse radish conjugated anti-M13 antibody.
# 006 PSMA Fab [2] = target: T1, 006 PSMA Fab; experiment: clonal phage ELISA; biotinylated PSMA Fab on neutravidin plate, PSMA antigen as competitor, anti-M13-HRP
# Description: as §1
# [3] = target: T2, PSMA Fab (SEQ ID NOs: 19, 20); experiment: competition ELISA, peptide titrated against 0.3 nM PSMA Fab on captured biotinylated PSMA
# T2 construct: also called 006 PSMA Fab; anti-PSMA Fab
# Description: The concentration of peptide required to reduce the maximum signal by 50% (IC₅₀) was calculated in Graphpad Prism software.
# PSMA Fab [4] = target: T3, PSMA Fab; experiment: phage ELISA; biotinylated PSMA Fab on neutravidin plate, blocking buffer alone; bound phage detected with anti-M13-HRP
# T3 construct: Used biotinylated and captured on neutravidin plates in the phage ELISA; also called Anti-PSMA Fab; 006 PSMA Fab
# Description: as §1
# PSMA Fab [5] = target: T3, PSMA Fab; experiment: phage ELISA; biotinylated PSMA Fab on neutravidin plate, pre-incubated with PSMA antigen as competitor; anti-M13-HRP
# Description: as §1
Binder,"Phage binding ELISA signal, Anti-PSMA Fab (006 PSMA Fab [1])","phage binding ELISA signal (Anti-PSMA Fab, wells pre-incubated with PSMA antigen) (006 PSMA Fab [2])",IC50 [3] [µM],further results
B1,0.542,0.0801,,
B2,,,18.9,
B3,0.584,0.07,,
B4,,,9.07,
B5,,,19.3,
B6,,,5.52,
B7,,,36.1,
B8,,,,"Phage binding ELISA signal, Anti-PSMA Fab (PSMA Fab [4]): 1.39; Phage binding ELISA signal, Anti-PSMA Fab in presence of PSMA antigen (PSMA Fab [5]): 0.0729"
B9,0.551,0.108,,
B10,,,,"Phage binding ELISA signal, Anti-PSMA Fab (PSMA Fab [4]): 1.39; Phage binding ELISA signal, Anti-PSMA Fab in presence of PSMA antigen (PSMA Fab [5]): 0.0591"
B11,0.589,0.0852,,
B12,,,11,
B13,,,,"Phage binding ELISA signal, Anti-PSMA Fab (PSMA Fab [4]): 1.39; Phage binding ELISA signal, Anti-PSMA Fab in presence of PSMA antigen (PSMA Fab [5]): 0.16"
B14,,,28.7,
B15,0.566,0.0832,,
B16,,,10.2,

Binder,"Phage binding ELISA signal, Anti-PSMA Fab (006 PSMA Fab [1])","phage binding ELISA signal (Anti-PSMA Fab, wells pre-incubated with PSMA antigen) (006 PSMA Fab [2])",IC50 [3] [µM],further results
B17,0.627,0.119,,
B18,0.471,0.0777,,
B19,,,,"Phage binding ELISA signal, Anti-PSMA Fab (PSMA Fab [4]): 1.39; Phage binding ELISA signal, Anti-PSMA Fab in presence of PSMA antigen (PSMA Fab [5]): 0.312"
B20,,,10.3,
B21,0.62,0.0787,,
B22,0.542,0.0538,,
B23,0.475,0.0592,,
B24,,,,"Phage binding ELISA signal, Anti-PSMA Fab (PSMA Fab [4]): 1.39; Phage binding ELISA signal, Anti-PSMA Fab in presence of PSMA antigen (PSMA Fab [5]): 0.0711"
B25,0.523,0.0623,,
B26,0.459,0.0611,,
B27,,,6.39,
B28,,,12.2,
B29,,,9.86,
B30,0.485,0.0703,,
B31,0.554,0.0705,,
B32,0.607,0.0983,,
